T1: binary FGFR1c-Klotho complex (UniProt O35082+P11362)
T1 construct: The ectodomain of murine Klotho (A35 to K982) was purified from culture media; FLAG (C); made in house; host or cells: E. coli (FGFR1c, FGF23); HEK293 (Klotho ectodomain)
T1 sequence (P11362 142-365): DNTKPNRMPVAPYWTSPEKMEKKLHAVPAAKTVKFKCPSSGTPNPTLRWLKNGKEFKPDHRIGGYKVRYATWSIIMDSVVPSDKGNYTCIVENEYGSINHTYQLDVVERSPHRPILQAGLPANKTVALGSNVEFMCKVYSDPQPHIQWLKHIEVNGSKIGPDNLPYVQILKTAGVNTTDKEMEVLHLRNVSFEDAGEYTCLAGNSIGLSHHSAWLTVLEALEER
T1 sequence (O35082 35-982): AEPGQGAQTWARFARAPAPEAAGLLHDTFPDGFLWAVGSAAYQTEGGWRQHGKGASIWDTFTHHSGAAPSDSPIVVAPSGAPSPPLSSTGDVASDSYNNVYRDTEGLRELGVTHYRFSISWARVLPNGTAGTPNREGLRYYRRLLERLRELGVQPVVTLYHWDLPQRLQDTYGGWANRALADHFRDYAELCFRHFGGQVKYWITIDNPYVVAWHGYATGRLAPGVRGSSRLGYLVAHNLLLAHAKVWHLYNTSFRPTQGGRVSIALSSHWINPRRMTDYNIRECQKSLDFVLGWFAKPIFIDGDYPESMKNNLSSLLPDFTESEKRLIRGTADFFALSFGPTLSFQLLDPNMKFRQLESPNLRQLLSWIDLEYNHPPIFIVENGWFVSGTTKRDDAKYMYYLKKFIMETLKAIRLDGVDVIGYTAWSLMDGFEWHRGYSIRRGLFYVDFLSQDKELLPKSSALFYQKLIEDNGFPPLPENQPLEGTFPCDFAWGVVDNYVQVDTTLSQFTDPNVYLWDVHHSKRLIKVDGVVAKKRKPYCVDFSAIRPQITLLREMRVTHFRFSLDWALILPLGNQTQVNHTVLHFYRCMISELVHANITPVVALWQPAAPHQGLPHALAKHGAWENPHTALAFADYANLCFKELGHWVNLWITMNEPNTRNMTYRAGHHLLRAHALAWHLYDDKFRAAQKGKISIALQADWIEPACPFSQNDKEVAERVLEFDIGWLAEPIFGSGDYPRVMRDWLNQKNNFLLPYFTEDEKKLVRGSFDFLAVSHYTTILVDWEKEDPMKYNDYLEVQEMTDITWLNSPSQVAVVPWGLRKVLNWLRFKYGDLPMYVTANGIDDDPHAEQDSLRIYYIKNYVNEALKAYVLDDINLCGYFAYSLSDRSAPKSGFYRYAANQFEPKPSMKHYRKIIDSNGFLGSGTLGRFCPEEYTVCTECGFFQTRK

B1: FGF23^28-251: human FGF23 (A28 to I251), bioactive full-length ligand expressed in E. coli (protein, listed as Homo sapiens)
chain: ASPLLGSSWGGLIHLYTATARNSYHLQIHKNGHVDGAPHQTIYSALMIRSEDAGFVVITGVMSRRYLCMDFRGNIFGSHYFDPENCRFQHQTLENGYDVYHSPQYHFLVSLGRAKRAFLPGMNPPPYSQFLSRRNEIPLIHFNTPIPRRHTRSAEDDSERDPLNVLKPRARMTPAPASCSQELPSAEDNSPMASDPLGVVRGGRVNTHAGGTGPEGCRPFAKFI
B2: FGF23^180-251: 72-amino acid C-terminal tail of human FGF23 (S180 to I251), expressed in E. coli (protein, listed as Homo sapiens)
chain: SAEDDSERDPLNVLKPRARMTPAPASCSQELPSAEDNSPMASDPLGVVRGGRVNTHAGGTGPEGCRPFAKFI

Target: T1, binary FGFR1c-Klotho complex
Experiment: Reverse SPR competition: FGFR1c-Klotho binding to immobilized FGF23^180-251
Design: species or system human FGFR1c, murine Klotho
Settings: reverse SPR format
Experimental: A variety of interaction or binding assays can be used to determine that an agent specifically binds the binary FGFR-Klotho complex, such as the SPR interaction analysis described below. One aspect of the present invention utilizes SPR analysis of FGF23 protein/peptide binding to the binary FGFR-Klotho complex. The SPR analysis involved FGF23 protein/peptide immobilization by amine coupling on flow channels of a chip. Proteins were injected over the chip at a flow rate of 50 μl min^−1, and at the end of each protein injection (180 s), HBS-EP buffer (10 mM HEPES-NaOH, pH 7.4, 150 mM NaCl, 3 mM EDTA, 0.005% (v/v) polysorbate 20; 50 μl min^−1) was flowed over the chip to monitor dissociation for 180 s. The chip surface was then regenerated by injecting 50 μl of 2.0 M NaCl in 10 mM sodium acetate, pH 4.5. […] For each protein injection over a FGF23 protein/peptide chip, the nonspecific responses from the FHF1B control flow channel were subtracted from the responses recorded for the flow channel onto which FGF23 protein/peptide was immobilized. […] As a control, competition of FGF23 C-terminal tail peptide in solution with immobilized FGF23 C-terminal tail peptide for binding to the binary FGFR1c-Klotho complex was analyzed. […]

inhibition of FGFR1c-Klotho binding to immobilized FGF23^180-251 | Molecule
inhibition | B1
inhibition | B2
